Data from US20240272171A1, “Methods for Identification of Exchangeable MHC Binding Peptides and Methods of Use Thereof” (PhenomeX Inc., priority 2020, published 2024).

Target: HLA-A*02:01 MHC Class I complex (recombinant, biotinylated) (human)
Assay: displacement of the FITC-labelled in-place peptide from 1 uM HLA-A*02:01; competitor: incoming peptide [..] at 20 uM with 10 mM GlyCha, 4 h at room temperature; FITC on streptavidin capture beads by flow cytometry

**Q.** With GMGQKDSYV (modifications not checked) [EP3 … (SEQ ID NO: 1), FITC-labelled in-place peptide GMGQ{Lys(FITC)}DSYV] as the binder, how does the exchange efficiency read?
**A.** 1
